Data: article PMC7153833

How the values were obtained:
[1] = molecular target: hyper-galactosylated (G2 F) variant of the mAb; assay: native MS
[2] = molecular target: α-2,6-sialic acid variant (ST6) of the mAb; assay: native MS

fold change of binding affinity against G0 F [1]: 1.5 fold
fold change of binding affinity against ST3 [2]: 1.72 fold
Substance: recombinant Human Fc gamma RIIIa/CD16a (V176) protein (from UniProt P08637 17-208) (receptor)
